Binding result, Kd and IC50 data for six molecules are collected here from US7012133 (CHILDREN S MEDICAL CENTER, dated 2006).

To fix the notation:
T1: CCR1 on stable L1.2 transfectants (UniProt P32246 1-355, limits assumed)
T1 construct: whole, on cells; also called CKR-1; CC CKR1
T1 sequence (looked up): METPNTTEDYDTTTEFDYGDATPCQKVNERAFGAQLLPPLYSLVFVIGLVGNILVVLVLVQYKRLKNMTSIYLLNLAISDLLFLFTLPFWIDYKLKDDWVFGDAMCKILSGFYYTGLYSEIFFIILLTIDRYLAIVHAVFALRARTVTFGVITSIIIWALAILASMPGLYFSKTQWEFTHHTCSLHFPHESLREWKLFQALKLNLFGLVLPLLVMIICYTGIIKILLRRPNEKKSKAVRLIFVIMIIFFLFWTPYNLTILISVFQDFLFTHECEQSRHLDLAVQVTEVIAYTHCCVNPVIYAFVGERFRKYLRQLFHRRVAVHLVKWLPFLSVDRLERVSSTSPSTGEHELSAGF

T2: receptor encoded by the A31 cDNA clone (human CKR-3 / Eos L2) (human, UniProt P51677 1-355)
T2 construct: one RBL transfectant is also mentioned
T2 sequence: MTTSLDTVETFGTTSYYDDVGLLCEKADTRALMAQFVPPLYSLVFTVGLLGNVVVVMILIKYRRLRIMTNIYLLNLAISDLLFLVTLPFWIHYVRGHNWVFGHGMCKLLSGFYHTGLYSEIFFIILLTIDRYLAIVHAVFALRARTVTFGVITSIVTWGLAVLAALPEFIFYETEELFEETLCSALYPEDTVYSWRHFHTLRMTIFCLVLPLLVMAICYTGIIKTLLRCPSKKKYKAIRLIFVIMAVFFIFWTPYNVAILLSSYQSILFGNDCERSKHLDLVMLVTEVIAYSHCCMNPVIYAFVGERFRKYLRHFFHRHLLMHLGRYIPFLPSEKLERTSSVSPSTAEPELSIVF

T3: C-C chemokine receptor 3 (CCR3, CKR-3) of human origin, native, on blood eosinophils and basophils (human, UniProt P51677 1-355)
T3 construct: whole, on cells; also called Eos L2 receptor; eosinophilic chemokine receptor
T3 sequence (looked up): T2 sequence

B1: RANTES (ligand, human, UniProt P13501 24-91, looked up)
chain: SPYSSDTTPCCFAYIARPLPRAHIKEYFYTSGKCSNPAVVFVTRKNRQVCANPEKKWVREYINSLEMS
modifications: also: 125I label where used as radioligand
notes: also called cold RANTES
B2: MCP-3 (ligand)
chain: not shown
modifications: 125I label where used as radioligand
notes: also called human MCP-3
B3: human eotaxin (ligand)
chain: not shown
modifications: 125I label (Bolton Hunter reagent) where used as radioligand
B4: monoclonal antibody 7B11 (ATCC Accession No. HB-12195) (antibody, V domains shown)
VH: MVQLQQSGTVLARPGASVRMSCKTSGYTFTNYRMHWVRQRPGQGLEWIGSIYPGHTETTYNQNFKDKAKLTAVTSATTAYMGLSSLTNEDSAVYYCTRSGGNYWGQGTTVTVSS
VL: DIQMTQSPSSLSASLGERVSLTCRASQDIGSSLNWLQQKPDGTFIRLIYATSSLDSGVPRRFSGSRSGSDYSLTISSLESEDFVDYYCLQYATFPLTFGAGTKLEIK
B5: MIP-1α (ligand, human, UniProt P10147 23-92, looked up)
chain: ASLAADTPTACCFSYTSRQIPQNFIADYFETSSQCSKPGVIFLTKRSRQVCADPSEEWVQKYVSDLELSA
modifications: also: 125I label where used as radioligand
notes: also called macrophage inflammatory protein 1α
B6: FLAG-tagged Eos L2 (CKR-3) receptor (receptor)
chain: MDYKDDDDKEFTTSLDTVETFGTTSYYDDVGLLCEKADTRALMAQFVPPLYSLVFTFGLLGNVVVVMILIKYRRLRIMTNIYLLNLAISDLLFLVTLPFWIHYVRGHNWVFGHGMCKLLSGFYHTGLYSEIFFIILLTIDRYLAIVHAVFALRARTVTFGVITSIVTWGLAVLAALPEFIFYETEELFEETLCSALYPEDTVYSWRHFHTLRMTIFCLVLPLLVMAICYTGIIKTLLRCPSKKKYKAIRLIFVIMAVFFIFWTPYNVAILLSSYQSILFGNDCERTKHLDLVMLVTEVIAYSHCCMNPVIYAFVGERFRKYLRHFFHRHLLMHLGRYIPFLPSEKLERTSSVSPSTAEPELSIVF
notes: Receptor from the 1.8 kb genomic HindIII fragment, expressed on L1.2 (L1-2) pre-B cells, 293 cells or baculovirus-infected Sf9 cells; also called Eos L2 receptor fusion protein; CKR-3/pcDNA3 product

Test [1] concerns the target T1, CCR1 on stable L1.2 transfectants. The experiment in a line: 125I-RANTES binding to L1.2 CCR1 transfectants.
For test [2], the target named is T2, receptor encoded by the A31 cDNA clone …. Description: Scatchard analysis, 125I-RANTES on membranes of A31-293-#20 cells. How it is done:
Plates were grown to confluence, and membranes were prepared as follows. Culture medium was removed, and the cells were washed with phosphate buffered saline. Cells were harvested by washing with TEN (40 mM TRIS, pH 7.5, 1 mM EDTA, and 150 mM NaCl). The cells were frozen in liquid nitrogen, thawed at room temperature, and the membrane fraction was collected by centrifugation in a conical tube for 10 minutes at 18,000 rpm. Each binding point was determined using one-half of the membranes harvested from a single 100 mm plate grown to confluence.
Binding assays were performed as described by Van Riper, G. et al., J. Exp. Med., 177: 851 (1993), with the following modifications. […] Binding buffer was 50 mM Hepes, 1 mM CaCl_2, 5 mM MgCl_2, 0.5% BSA, pH 7.2. Radiolabeled and cold ligand were added simultaneously to the membranes (see above), and incubated for 1.5 hours at room temperature. […] Activity retained on filters after washing was determined by scintillation counting. Filters were placed in 5 cc of scintillation fluid and were then counted in a miniaxi-beta liquid scintillation counter (United Technologies, Packard, Downers Grove, Ill.). All points were determined in triplicate, except for the point at 2 nM, which was determined in duplicate. […]

Test [3] deals with T3, C-C chemokine receptor 3 (CCR3, CKR-3) …. Description: Scatchard analysis, radioligand binding to human eosinophils. How it is done:
(§1) In microfuge tubes, 5 ×10^5 cells were incubated with 0.1 nM radiolabeled chemokine (purchased from New England Nuclear, Massachusetts) in 200 µl aliquots at room temperature for 60 minutes. The cells were either incubated with radiolabeled chemokine alone, or together with unlabeled chemokines (from PeproTech) as competitors, which were used at the indicated concentrations. At the end of incubation, cells were washed 3 times in the binding buffer, each wash consisting of centrifugation in a microfuge at 7,000×g for 2 minutes. After the wash, the pellets were transferred into LP3 tubes and the radioactivity of the cells, which represented the amount of binding was measured in a gamma counter. All samples were in duplicates and all the experiments were repeated at least 3 times. Scatchard Plot was calculated from the binding data by MicroSoft Excell and CricketGraph on a Macintosh computer.
(§2) Figure 6: FIG. 6 is a histogram illustrating the binding of RANTES and MIP-1α to human eosinophils. […] Human eosinophils were incubated with 0.1 nM radiolabeled RANTES and the indicated concentrations of cold chemokines. The data plotted are the means and standard deviations of duplicates for each sample.

Test [4] shares this target. Description: heterologous competition of radiolabeled RANTES binding on eosinophils. How it is done: as §1, with “Cells transfected with Eos L2 receptors or normal human eosinophils purified (see above) were washed in Hanks Balanced Saline Solution (HBSS), then resuspended in binding buffer: 50 mM HEPES, 1 mM CaCl_2, 5 mM MgCl_2, 0.5% Bovine Serum Albumin (BSA), pH 7.3. In” for “In”
Figure 6: FIG. 6 is a histogram illustrating the binding of RANTES and MIP-1α to human eosinophils. […] Human eosinophils were incubated with 0.1 nM radiolabeled RANTES and the indicated concentrations of cold chemokines. […]

For test [5] the target is unchanged. Description: Scatchard analysis of unlabeled eotaxin competition on human eosinophils. How it is done:
(§3) FIG. 11A) or to human eosinophils (FIG. 11B). […] After 60 minutes at room temperature, cell pellets were washed and counted. Scatchard plots of unlabeled eotaxin competition were calculated from the data (FIG. 11C, E5 cell line; FIG. 11D, eosinophils).
(§4) Competition is presented as the percentage of specific binding as calculated by $100(S-B)/(T-B)$, where S is the radioactivity of the sample, B as background binding and T as total binding without competitors. Background binding was obtained by incubating cells with radiolabeled chemokine and at least 400-fold excess of unlabeled chemokines. […] Duplicates were used throughout the experiments and the standard deviations were always less than 10% of the mean. All experiments were repeated at least three times. Curve fit was calculated by […] software.
(§5) The E5 cell line described in Example 6 was tested for its ability to bind radiolabeled eotaxin. […] In addition, both RANTES and MCP-3 were able to specifically compete for binding. None of the other chemokines tested, including MIP-1α, MIP-1β, or IL-8 were able to specifically compete for radiolabeled ligand (FIG. 12).

The target is the same in test [6]. The experiment in a line: inhibition of 0.1 nM 125I-eotaxin binding to human eosinophils by varied 7B11.
Test [7] shares this target. The experiment in a line: inhibition of 0.1 nM 125I-MCP-3 binding to human eosinophils by varied 7B11.
For test [8] the target is unchanged. Description: inhibition of 0.1 nM 125I-RANTES binding to human eosinophils by varied 7B11.
The target in test [9] is T4, MIP-1α binding sites on human eosinophils.
T4 construct: also called receptor for MIP-1α on eosinophils
Description: Scatchard analysis, radioligand binding to human eosinophils. How it is done: as §1, §2

The test “human eotaxin” deals with B3. The experiment in a line: Scatchard analysis of unlabeled eotaxin competition on E5 cells. How it is done:
as §3, §4, §5

As usually defined, the Kd is the constant that tells how readily two partners part at equilibrium. Usually IC50 stands for the concentration at which inhibition is half-maximal.

Chain of human eotaxin (P51671 24-97 limits assumed): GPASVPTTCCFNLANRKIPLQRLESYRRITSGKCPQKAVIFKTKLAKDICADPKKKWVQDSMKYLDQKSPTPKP

In the case of B1, in test [1], the binding result is “binds”. Also, the results for the equilibrium dissociation constant (Kd) in test [2] and in test [3] were ~2.5 nM and 0.883 nM, respectively.

For B2, in test [4], the binding result is listed as “binds”.

Consider B3, for which the Kd in test [5] came out at 0.5 nM.

Consider B4, for which the IC50 in test [6] worked out at 0.0257 µg/mL; in test [7], 0.0188 µg/mL; in test [8], 0.0137 µg/mL.

B5 had a Kd in [9] of 0.091 nM.

B6: in the test with human eotaxin, binding was characterised by a dissociation constant (Kd) of 1.5 nM.
